# Reference: article PMC6755090
# Tests used:
# [1] = target: T1, Escherichia coli σ^70 (Escherichia coli, UniProt P00579 1-613); test: cryo-EM structure; σ appropriation complex assembled from σ^70, AsiA, RNAP core enzyme, MotA and a P_(uvsX) DNA scaffold, purified on Superose 6 in 10 mM HEPES pH 7.5, 50 mM KCl; 8 mM CHAPSO added; 3.79 Å; conditions: both partners purified
# T1 construct: RNA polymerase sigma factor σ^70 (RpoD) of Escherichia coli; holds σR2, σR3, σR3.2 and σR4 (helices S1-S5); also called principle σ factor
# [2] = target: T2, AsiA (bacteriophage T4, UniProt P32267 1-90); test: fluorescence polarization; comparable affinity to the promoter scaffold; KD only in figure; FP: 10 mM HEPES pH 7.5, 50 mM KCl, 25°C, 0.1 μM DNA, 0-100 μM AsiA; EMSA: 7 mM Tris-HCl and 50 mM Tris-Ac pH 7.9, 0.19 M KGlu, 5 mM MgAc2, 50 mM K-phosphate pH; conditions: protein: recombinant; tags: N-His6; label: 5' 6-FAM
# T2 sequence: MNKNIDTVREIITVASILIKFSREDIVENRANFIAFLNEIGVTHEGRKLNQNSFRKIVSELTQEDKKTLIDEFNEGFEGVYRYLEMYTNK
# T1 sequence (P00579 whole entry): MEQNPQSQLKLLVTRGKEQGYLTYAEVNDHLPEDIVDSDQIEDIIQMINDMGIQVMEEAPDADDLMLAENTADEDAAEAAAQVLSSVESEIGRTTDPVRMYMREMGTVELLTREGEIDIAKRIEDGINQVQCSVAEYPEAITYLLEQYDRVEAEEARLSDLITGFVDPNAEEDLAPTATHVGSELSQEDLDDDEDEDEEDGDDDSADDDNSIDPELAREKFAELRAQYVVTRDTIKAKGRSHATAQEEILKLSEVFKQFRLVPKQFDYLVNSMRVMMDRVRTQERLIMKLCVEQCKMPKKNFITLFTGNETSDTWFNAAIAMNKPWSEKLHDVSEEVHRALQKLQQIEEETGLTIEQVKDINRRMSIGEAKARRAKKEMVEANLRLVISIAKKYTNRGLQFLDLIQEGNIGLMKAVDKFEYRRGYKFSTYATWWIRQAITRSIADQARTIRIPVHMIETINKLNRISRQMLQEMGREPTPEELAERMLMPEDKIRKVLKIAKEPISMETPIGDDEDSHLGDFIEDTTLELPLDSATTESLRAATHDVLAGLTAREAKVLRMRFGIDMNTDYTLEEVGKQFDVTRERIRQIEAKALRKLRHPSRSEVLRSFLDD
Binder,binding result [1],binding result [2]
"MotA (natural protein, bacteriophage T4, UniProt P22915 1-211, looked up, synthetic gene in pET21a; source: E. coli BL21(DE3), plasmid pET21a-MotA, purified (HiTrap Heparin, Mono S)) MSKVTYIIKASNDVLNEKTATILITIAKKDFITAAEVREVHPDLGNAVVNSNIGVLIKKGLVEKSGDGLIITGEAQDIISNAATLYAQENAPELLKKRATRKAREITSDMEEDKDLMLKLLDKNGFVLKKVEIYRSNYLAILEKRTNGIRNFEINNNGNMRIFGYKMMEHHIQKFTDIGMSCKIAKNGNVYLDIKRSAENIEAVITVASEL",binds,–
irrelevant DNA scaffold (FP) (dsDNA) DNA 1: GCAAATGAGCAACA DNA 2: TGTTGCTCATTTGC,–,binds
"AsiA (natural protein, bacteriophage T4, AsiA, anti-sigma 70 protein of bacteriophage T4; synthetic gene in pET28a; A6 is the C-terminal helix; also called AisA; N-hexahistidine-tagged AsiA; source: E. coli BL21(DE3), plasmid pET28a-NH-AsiA, purified (Ni-NTA, Mono Q)) MNKNIDTVREIITVASILIKFSREDIVENRANFIAFLNEIGVTHEGRKLNQNSFRKIVSELTQEDKKTLIDEFNEGFEGVYRYLEMYTNK",binds,–
